This note sets out measurements from the supplement of paper PMC7877785.

The data set is described as follows: self-splicing fitness, log relative to wild type (ln ratio); higher = more splicing; Tetrahymena group I intron in knt gene, E. coli kanamycin selection, DiMSum; sequences stand for … in CUCUCU…GGAGGGAAAAGUUAUCAGGCAUGCACCUGGUAGCUAGUCUUUAAACCAAUAGAUUGCAUCGGUUUAAAAGGCAAGACCGUCAAAUUGCGGGAAAGGGGUCAACAGCCGUUCAGUACCAAGUCUCAGGGGAAACUUUGAGAUGGCCUUGCAAAGGGUAUGGUAAUAAGCUGACGGACAUGGUCCUAACCACGCAGCCAAGUCCUAAGUCAACAGAUCUUCUGUUGAUAUGGAUGCAGUUCACAGACUAAAUGUCGGUCGGGGAAGAUGUAUUCUUCUCAUAAGAUAUAGUCGGACCUCUCCUUAAUGGGAGCUAGCGGAUGAAGUGAUGCAACACUGGAGCCGCUGGGAACUAAUUUGUAUGCGAAAGUAUAUUGAUUAGUUUUGGAGUACUCGUGGUCG
In outline:
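Library with all eight P1ex-region intron nucleotides randomised, intron inside the knt kanamycin-resistance gene on pET-22b(+), in E. coli BL21(DE3). Cells grew overnight at 37°C or 30°C on LB agar with or without 25 μg/mL kanamycin (plus 100 μg/mL carbenicillin, 50 μM IPTG, 0.2% rhamnose), in six replicate transformations. Pooled colonies were amplicon-sequenced on Illumina HiSeq 2500. DiMSum fitness is the error-weighted combination of wild-type-normalised replicate fold changes, kanamycin versus none.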

± gives the uncertainty stated by the source.

For the sequence CAUUAGCAAUAUUACGAGUA, the “self-splicing fitness (ln)” value is -1.59 ± 0.23 (30 °C) and -1.84 ± 0.27 (37 °C).
The like results for CAUUAGCAAUAUUACGAGUG were, in that order, -3.06 ± 0.15 and -2.83 ± 0.2.
On to CAUUAGCAAUAUUACGAUCA, for which the “self-splicing fitness (ln)” value by setting is: (30 °C) -2.81 ± 0.33; (37 °C) -1.46 ± 0.23.
On the same counts, the results for CAUUAGCAAUAUUACGAUCU are -2.48 ± 0.2 and -3.22 ± 0.47.
Consider CAUUAGCAAUAUUACGCAAU, for which the “self-splicing fitness (ln)” value (37 °C) was -1.54 ± 0.43.
Turning to CAUUAGCAAUAUUACGCAGG, the “self-splicing fitness (ln)” value by setting is: (30 °C) -2.18 ± 0.12; (37 °C) -1.53 ± 0.13.
With CAUUAGCAAUAUUACGCAUC, the “self-splicing fitness (ln)” value by setting is: (30 °C) -2.71 ± 0.21; (37 °C) -1.6 ± 0.27.
On the same counts, the results for CAUUAGCAAUAUUACGCCUG are -1.4 ± 0.12 and -0.136 ± 0.12.
Take CAUUAGCAAUAUUACGGCUU: the “self-splicing fitness (ln)” value is, setting by setting: (30 °C) -4.46 ± 0.39; (37 °C) -1.98 ± 0.33.
The like results for CAUUAGCAAUAUUACGUAGU were, in that order, -3.66 ± 0.17 and -1.84 ± 0.17.
Regarding CAUUAGCAAUAUUACGUCAA, the “self-splicing fitness (ln)” value is -2.38 ± 0.23 (30 °C) and -2.96 ± 0.4 (37 °C).
In the case of CAUUAGCAAUAUUACGUCCG, the “self-splicing fitness (ln)” value (30 °C) is -0.0564 ± 0.12 and the “self-splicing fitness (ln)” value (37 °C) was -0.142 ± 0.15.
The like results for CAUUAGCAAUAUUACGUGAG were, in that order, -1.55 ± 0.14 and 0.776 ± 0.12.
CAUUAGCAAUAUUACGUGCA: where the note is “30 °C”, the “self-splicing fitness (ln)” value was -2.31 ± 0.28.
In the case of CAUUAGCAAUAUUACGUGCG, the “self-splicing fitness (ln)” value was -0.965 ± 0.074 (30 °C) and -0.237 ± 0.082 (37 °C).
On the same counts, the results for CAUUAGCAAUAUUACGUGGA are -3.35 ± 0.19 and -2.13 ± 0.13.
Consider CAUUAGCAAUAUUACGUUCA, for which the “self-splicing fitness (ln)” value is, setting by setting: (30 °C) -2.33 ± 0.2; (37 °C) -2.35 ± 0.24.
The like results for CCAAAGCAAUAUUACGAACA were, in that order, -3.48 ± 0.22 and -3.23 ± 0.28.
The like results for CCAAAGCAAUAUUACGAUCA were, in that order, -2.94 ± 0.13 and -3.1 ± 0.31.
The like results for CCAAAGCAAUAUUACGAUUA were, in that order, -3.39 ± 0.2 and -3.27 ± 0.25.
For CCAAAGCAAUAUUACGCAGA, the “self-splicing fitness (ln)” value is -3.75 ± 0.19 (30 °C) and -2.65 ± 0.18 (37 °C).
Consider CCAAAGCAAUAUUACGCAUA, for which the “self-splicing fitness (ln)” value is, setting by setting: (30 °C) -3.42 ± 0.15; (37 °C) -2.38 ± 0.17.
As to CCAAAGCAAUAUUACGCGAC, the “self-splicing fitness (ln)” value by setting is: (30 °C) -4.37 ± 0.27; (37 °C) -2.87 ± 0.21.
For CCAAAGCAAUAUUACGCGCG, the “self-splicing fitness (ln)” value by setting is: (30 °C) -1.59 ± 0.075; (37 °C) -0.994 ± 0.1.
The like results for CCAAAGCAAUAUUACGCGGC were, in that order, -3.34 ± 0.18 and -3.15 ± 0.32.
On the same counts, the results for CCAAAGCAAUAUUACGCGUC are -3.17 ± 0.21 and -2.98 ± 0.34.
On the same counts, the results for CCAAAGCAAUAUUACGGAGG are -3.79 ± 0.25 and -2.04 ± 0.21.
On to CCAAAGCAAUAUUACGGAUU, for which the “self-splicing fitness (ln)” value is -3.94 ± 0.25 (30 °C) and -3.55 ± 0.35 (37 °C).
With CCAAAGCAAUAUUACGGCAG, the “self-splicing fitness (ln)” value (30 °C) was -0.931 ± 0.074 and the “self-splicing fitness (ln)” value (37 °C) is -0.49 ± 0.11.
As for CCAAAGCAAUAUUACGGCUC, the “self-splicing fitness (ln)” value is, setting by setting: (30 °C) -3.44 ± 0.29; (37 °C) -2.32 ± 0.25.
The like results for CCAAAGCAAUAUUACGGGUA were, in that order, -2.96 ± 0.24 and -3.34 ± 0.43.
Consider CCAAAGCAAUAUUACGGUAC, for which the “self-splicing fitness (ln)” value was -3.5 ± 0.24 (30 °C) and -3.13 ± 0.29 (37 °C).
Consider CCAAAGCAAUAUUACGGUGU, for which the “self-splicing fitness (ln)” value by setting is: (30 °C) -3.74 ± 0.19; (37 °C) -2.97 ± 0.15.
The like results for CCAAAGCAAUAUUACGUACU were, in that order, -3.69 ± 0.2 and -2.76 ± 0.27.
As to CCAAAGCAAUAUUACGUAUC, the “self-splicing fitness (ln)” value (30 °C) is -1.28 ± 0.11 and the “self-splicing fitness (ln)” value (37 °C) was -2.76 ± 0.24.
The like results for CCAAAGCAAUAUUACGUCAA were, in that order, -3.22 ± 0.14 and -2.02 ± 0.13.
On the same counts, the results for CCAAAGCAAUAUUACGUGGA are -3.55 ± 0.15 and -2.81 ± 0.21.
On the same counts, the results for CCACAGCAAUAUUACGAACU are -2.98 ± 0.17 and -3.23 ± 0.32.
As to CCACAGCAAUAUUACGACCC, the “self-splicing fitness (ln)” value (30 °C) is -4.02 ± 0.39.
As for CCACAGCAAUAUUACGACGA, the “self-splicing fitness (ln)” value was -3.12 ± 0.19 (30 °C) and -2.09 ± 0.16 (37 °C).
On the same counts, the results for CCACAGCAAUAUUACGAGAA are -2.74 ± 0.26 and -3.69 ± 0.39.
In the case of CCACAGCAAUAUUACGAUCG, the “self-splicing fitness (ln)” value was -0.326 ± 0.06 (30 °C) and 0.703 ± 0.077 (37 °C).
For the sequence CCACAGCAAUAUUACGAUUC, the “self-splicing fitness (ln)” value (30 °C) was -3.17 ± 0.11 and the “self-splicing fitness (ln)” value (37 °C) is -2.23 ± 0.14.
The like results for CCACAGCAAUAUUACGCAGA were, in that order, -3.08 ± 0.17 and -2.89 ± 0.16.
Regarding CCACAGCAAUAUUACGCAUC, the “self-splicing fitness (ln)” value (30 °C) was -3.23 ± 0.19 and the “self-splicing fitness (ln)” value (37 °C) is -2.31 ± 0.2.
Take CCACAGCAAUAUUACGCUAA: the “self-splicing fitness (ln)” value reads like this: (30 °C) -3.8 ± 0.22; (37 °C) -1.62 ± 0.15.
The like results for CCACAGCAAUAUUACGCUAG were, in that order, -3.27 ± 0.12 and -1.36 ± 0.1.
On to CCACAGCAAUAUUACGCUUA, for which the “self-splicing fitness (ln)” value reads like this: (30 °C) -3.43 ± 0.16; (37 °C) -2.98 ± 0.18.
In the case of CCACAGCAAUAUUACGCUUC, the “self-splicing fitness (ln)” value (30 °C) was -3.25 ± 0.47.
For CCACAGCAAUAUUACGGCGC, the “self-splicing fitness (ln)” value by setting is: (30 °C) -3.56 ± 0.16; (37 °C) -2.17 ± 0.13.
As for CCACAGCAAUAUUACGGCUU, the “self-splicing fitness (ln)” value is, setting by setting: (30 °C) -3.62 ± 0.14; (37 °C) -2.71 ± 0.18.
For the sequence CCACAGCAAUAUUACGGGCC, the “self-splicing fitness (ln)” value by setting is: (30 °C) -4.14 ± 0.25; (37 °C) -2.5 ± 0.18.
In the case of CCACAGCAAUAUUACGGUGG, the “self-splicing fitness (ln)” value is, setting by setting: (30 °C) -4.51 ± 0.17; (37 °C) -2.28 ± 0.11.
On the same counts, the results for CCACAGCAAUAUUACGUCCA are -3.23 ± 0.19 and -1.59 ± 0.15.
On to CCACAGCAAUAUUACGUCUC, for which the “self-splicing fitness (ln)” value is -3.01 ± 0.17 (30 °C) and -2.66 ± 0.16 (37 °C).
CCACAGCAAUAUUACGUGAG: the “self-splicing fitness (ln)” value by setting is: (30 °C) -0.847 ± 0.051; (37 °C) -0.739 ± 0.065.
On the same counts, the results for CCACAGCAAUAUUACGUGGC are -3.84 ± 0.12 and -2.86 ± 0.12.
Turning to CCACAGCAAUAUUACGUUCA, the “self-splicing fitness (ln)” value (30 °C) is -3.27 ± 0.16 and the “self-splicing fitness (ln)” value (37 °C) is -2.5 ± 0.19.
With CCACAGCAAUAUUACGUUCU, the “self-splicing fitness (ln)” value runs as follows: (30 °C) -2.77 ± 0.1; (37 °C) -3.7 ± 0.19.
On the same counts, the results for CCAGAGCAAUAUUACGACCG are -0.53 ± 0.14 and -0.622 ± 0.22.
For the sequence CCAGAGCAAUAUUACGACGG, the “self-splicing fitness (ln)” value (30 °C) was -2.88 ± 0.18 and the “self-splicing fitness (ln)” value (37 °C) is -2.02 ± 0.28.
The like results for CCAGAGCAAUAUUACGACUG were, in that order, -1.05 ± 0.1 and -0.605 ± 0.15.
For CCAGAGCAAUAUUACGACUU, the “self-splicing fitness (ln)” value reads like this: (30 °C) -3.55 ± 0.17; (37 °C) -2.61 ± 0.23.
With CCAGAGCAAUAUUACGAGGA, the “self-splicing fitness (ln)” value is -2.96 ± 0.23 (30 °C) and -2.46 ± 0.27 (37 °C).
For the sequence CCAGAGCAAUAUUACGAGUG, the “self-splicing fitness (ln)” value is -1.2 ± 0.073 (30 °C) and -0.146 ± 0.092 (37 °C).
The like results for CCAGAGCAAUAUUACGCAAA were, in that order, -2.79 ± 0.48 and -1.57 ± 0.33.
Turning to CCAGAGCAAUAUUACGCAAC, the “self-splicing fitness (ln)” value by setting is: (30 °C) -4.18 ± 0.24; (37 °C) -2.94 ± 0.12.
On the same counts, the results for CCAGAGCAAUAUUACGCAGG are -3.56 ± 0.15 and -2.53 ± 0.17.
The like results for CCAGAGCAAUAUUACGCAUG were, in that order, -2.64 ± 0.16 and -1.59 ± 0.16.
Turning to CCAGAGCAAUAUUACGCGCG, the “self-splicing fitness (ln)” value (30 °C) is -1.19 ± 0.1 and the “self-splicing fitness (ln)” value (37 °C) is -0.59 ± 0.14.
The like results for CCAGAGCAAUAUUACGGAUG were, in that order, -2.56 ± 0.15 and -1.3 ± 0.18.
On the same counts, the results for CCAGAGCAAUAUUACGGCGA are -3.16 ± 0.26 and -2.65 ± 0.29.
For the sequence CCAGAGCAAUAUUACGGCUG, the “self-splicing fitness (ln)” value by setting is: (30 °C) -1.9 ± 0.083; (37 °C) -1 ± 0.12.
On to CCAGAGCAAUAUUACGGGCU, for which the “self-splicing fitness (ln)” value (30 °C) was -3.24 ± 0.3.
For the sequence CCAGAGCAAUAUUACGGGGU, the “self-splicing fitness (ln)” value was -2.35 ± 0.43 (30 °C) and -2.78 ± 0.34 (37 °C).
As for CCAGAGCAAUAUUACGUAGC, the “self-splicing fitness (ln)” value reads like this: (30 °C) -3.23 ± 0.19; (37 °C) -2.38 ± 0.26.
For the sequence CCAGAGCAAUAUUACGUCAC, the “self-splicing fitness (ln)” value (30 °C) is -2.34 ± 0.3.
